# Experimental data published in patent US20200079833A1 (AstraZeneca / MedImmune, published 2020).
# Starred links: 1 amine or outer side, 2 acyl side, 3 side chain; linkers in the order of their positions; H or OH if unused. Non-standard residues stand in square brackets, D forms with d. Groups on a side chain read outwards from the residue. Primed or numbered codes have the meaning given here. No end group written: not given here. *: point of attachment. γGlu = O=C(O)[C@H](CCC(=O)[*:2])N[*:1]; αMeF = C[C@](N)(Cc1ccccc1)C(=O)O; αMeK = C[C@](N)(CCCCN)C(=O)O; Lauroyl = CCCCCCCCCCCC(=O)*; αMeS = C[C@](N)(CO)C(=O)O; PEG2′ = not defined here; Aib = CC(C)(N)C(=O)O
# T1: GLP-1R in the INS1e assay (UniProt P32301 22-463, limits assumed)
# T1 sequence (looked up): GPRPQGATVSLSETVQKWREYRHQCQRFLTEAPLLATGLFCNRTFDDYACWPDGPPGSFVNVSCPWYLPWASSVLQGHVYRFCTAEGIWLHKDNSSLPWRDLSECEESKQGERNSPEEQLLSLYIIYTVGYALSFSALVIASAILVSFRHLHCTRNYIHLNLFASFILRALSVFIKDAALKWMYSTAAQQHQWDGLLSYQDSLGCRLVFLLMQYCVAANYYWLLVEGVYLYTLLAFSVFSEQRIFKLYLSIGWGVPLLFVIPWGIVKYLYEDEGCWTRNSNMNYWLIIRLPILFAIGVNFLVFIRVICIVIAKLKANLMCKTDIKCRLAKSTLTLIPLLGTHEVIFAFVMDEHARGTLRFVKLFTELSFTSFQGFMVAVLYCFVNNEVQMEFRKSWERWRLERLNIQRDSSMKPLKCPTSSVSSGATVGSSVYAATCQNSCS
# T2: glucose-dependent insulinotropic peptide (gastric inhibitory polypeptide) receptor (GIPR), primary cAMP assay … (human, UniProt P48546 22-466)
# T2 sequence (looked up): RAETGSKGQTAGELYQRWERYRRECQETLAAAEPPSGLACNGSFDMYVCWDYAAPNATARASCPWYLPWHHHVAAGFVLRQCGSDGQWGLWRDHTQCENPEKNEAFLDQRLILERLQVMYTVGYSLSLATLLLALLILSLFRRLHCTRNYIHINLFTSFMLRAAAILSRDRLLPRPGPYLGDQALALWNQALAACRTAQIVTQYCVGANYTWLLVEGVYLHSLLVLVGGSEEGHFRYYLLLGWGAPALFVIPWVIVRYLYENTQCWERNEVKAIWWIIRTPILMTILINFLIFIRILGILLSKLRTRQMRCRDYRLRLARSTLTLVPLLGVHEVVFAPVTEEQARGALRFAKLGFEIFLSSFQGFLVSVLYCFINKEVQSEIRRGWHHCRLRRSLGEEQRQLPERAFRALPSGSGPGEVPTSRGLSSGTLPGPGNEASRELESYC
# Biological target: T1, GLP-1R in the INS1e assay
# Test: cell-based or functional assay
"cAMP INS1e assay EC50, Mean pM GLP-1R","cAMP INS1e assay EC50, n1","cAMP INS1e assay EC50, n2",Binder
5860 pM,8.57 nM,3.15 nM,H[Aib]EGS[αMeF]TSDV[αMeS]SK([PEG2′-PEG2′-γGlu-Lauroyl])LEGEAA[αMeK]K([PEG2′-PEG2′-γGlu-Lauroyl])FIAFK([PEG2′-PEG2′-γGlu-Lauroyl])VEGG-NH2 [SEQ ID NO: 482]
6530 pM,9.37 nM,3.69 nM,H[Aib]EGS[αMeF]TSDV[αMeS]SK([PEG2′-PEG2′-γGlu-Lauroyl])LEGK([PEG2′-PEG2′-γGlu-Lauroyl])AA[αMeK]EFIAFK([PEG2′-PEG2′-γGlu-Lauroyl])VEGG-NH2 [SEQ ID NO: 480]

# The next lines start with the binder.
Binder,"cAMP INS1e assay EC50, Mean pM GLP-1R","cAMP INS1e assay EC50, n1","cAMP INS1e assay EC50, n2"
H[Aib]EGS[αMeF]TSDK([PEG2′-PEG2′-γGlu-Lauroyl])SSYLEK([PEG2′-PEG2′-γGlu-Lauroyl])EAA[αMeK]EFIAK([PEG2′-PEG2′-γGlu-Lauroyl])VVEGG-NH2 [SEQ ID NO: 455],4910 pM,6.74 nM,3.08 nM
H[Aib]EGS[αMeF]TSDV[αMeS]SYK([PEG2′-PEG2′-γGlu-Lauroyl])EGEAA[αMeK]K([PEG2′-PEG2′-γGlu-Lauroyl])FIAK([PEG2′-PEG2′-γGlu-Lauroyl])VVEGG-NH2 [SEQ ID NO: 470],3660 pM,3.84 nM,3.48 nM
H[Aib]EGS[αMeF]TSDVSK([PEG2′-PEG2′-γGlu-Lauroyl])YLEGEAA[αMeK]K([PEG2′-PEG2′-γGlu-Lauroyl])FIAK([PEG2′-PEG2′-γGlu-Lauroyl])VVEGG-NH2 [SEQ ID NO: 462],4560 pM,5.4 nM,3.73 nM

# Biological target: glucagon receptor (GCGR), primary cAMP assay cell line (human, UniProt P47871 26-477)
# Test: cell-based or functional assay
# Sequence of glucagon receptor (GCGR), primary cAMP assay cell line (P47871 26-477): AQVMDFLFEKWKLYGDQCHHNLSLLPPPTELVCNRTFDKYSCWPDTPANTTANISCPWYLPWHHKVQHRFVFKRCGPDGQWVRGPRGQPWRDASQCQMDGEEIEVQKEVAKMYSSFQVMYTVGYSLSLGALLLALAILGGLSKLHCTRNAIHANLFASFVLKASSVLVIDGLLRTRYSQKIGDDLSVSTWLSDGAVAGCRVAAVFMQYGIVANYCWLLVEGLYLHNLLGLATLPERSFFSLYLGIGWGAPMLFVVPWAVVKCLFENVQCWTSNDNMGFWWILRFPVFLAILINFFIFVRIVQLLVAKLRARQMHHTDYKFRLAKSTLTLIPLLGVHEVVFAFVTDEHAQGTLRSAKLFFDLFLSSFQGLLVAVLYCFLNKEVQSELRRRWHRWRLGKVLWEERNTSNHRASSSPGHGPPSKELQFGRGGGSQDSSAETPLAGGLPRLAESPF
"cAMP Primary assay EC50, n1","cAMP Primary assay EC50, n2",Binder
20 nM,20 nM,H[Aib]EGS[αMeF]TSDV[αMeS]SK([PEG2′-PEG2′-γGlu-Lauroyl])LEGEAA[αMeK]K([PEG2′-PEG2′-γGlu-Lauroyl])FIAFK([PEG2′-PEG2′-γGlu-Lauroyl])VEGG-NH2 [SEQ ID NO: 482]
20 nM,20 nM,H[Aib]EGS[αMeF]TSDV[αMeS]SK([PEG2′-PEG2′-γGlu-Lauroyl])LEGK([PEG2′-PEG2′-γGlu-Lauroyl])AA[αMeK]EFIAFK([PEG2′-PEG2′-γGlu-Lauroyl])VEGG-NH2 [SEQ ID NO: 480]

# The next lines start with the binder.
Binder,"cAMP Primary assay EC50, n1","cAMP Primary assay EC50, n2"
H[Aib]EGS[αMeF]TSDK([PEG2′-PEG2′-γGlu-Lauroyl])SSYLEK([PEG2′-PEG2′-γGlu-Lauroyl])EAA[αMeK]EFIAK([PEG2′-PEG2′-γGlu-Lauroyl])VVEGG-NH2 [SEQ ID NO: 455],19.8 nM,19.8 nM
H[Aib]EGS[αMeF]TSDV[αMeS]SYK([PEG2′-PEG2′-γGlu-Lauroyl])EGEAA[αMeK]K([PEG2′-PEG2′-γGlu-Lauroyl])FIAK([PEG2′-PEG2′-γGlu-Lauroyl])VVEGG-NH2 [SEQ ID NO: 470],20 nM,20 nM
H[Aib]EGS[αMeF]TSDVSK([PEG2′-PEG2′-γGlu-Lauroyl])YLEGEAA[αMeK]K([PEG2′-PEG2′-γGlu-Lauroyl])FIAK([PEG2′-PEG2′-γGlu-Lauroyl])VVEGG-NH2 [SEQ ID NO: 462],20 nM,20 nM

# Biological target: GLP-1 receptor (GLP-1R), primary cAMP assay cell line (human, UniProt P43220 24-463)
# Test: cell-based or functional assay
"cAMP Primary assay EC50, Mean pM GLP-1R","cAMP Primary assay EC50, n1","cAMP Primary assay EC50, n2",Binder
36.3 pM,0.0283 nM,0.0442 nM,H[Aib]EGS[αMeF]TSDV[αMeS]SK([PEG2′-PEG2′-γGlu-Lauroyl])LEGEAA[αMeK]K([PEG2′-PEG2′-γGlu-Lauroyl])FIAFK([PEG2′-PEG2′-γGlu-Lauroyl])VEGG-NH2 [SEQ ID NO: 482]
57.5 pM,0.056 nM,0.0589 nM,H[Aib]EGS[αMeF]TSDV[αMeS]SK([PEG2′-PEG2′-γGlu-Lauroyl])LEGK([PEG2′-PEG2′-γGlu-Lauroyl])AA[αMeK]EFIAFK([PEG2′-PEG2′-γGlu-Lauroyl])VEGG-NH2 [SEQ ID NO: 480]

# More lines, now with the values behind:
Binder,"cAMP Primary assay EC50, Mean pM GLP-1R","cAMP Primary assay EC50, n1","cAMP Primary assay EC50, n2"
H[Aib]EGS[αMeF]TSDK([PEG2′-PEG2′-γGlu-Lauroyl])SSYLEK([PEG2′-PEG2′-γGlu-Lauroyl])EAA[αMeK]EFIAK([PEG2′-PEG2′-γGlu-Lauroyl])VVEGG-NH2 [SEQ ID NO: 455],87.4 pM,0.0548 nM,0.12 nM
H[Aib]EGS[αMeF]TSDV[αMeS]SYK([PEG2′-PEG2′-γGlu-Lauroyl])EGEAA[αMeK]K([PEG2′-PEG2′-γGlu-Lauroyl])FIAK([PEG2′-PEG2′-γGlu-Lauroyl])VVEGG-NH2 [SEQ ID NO: 470],31.3 pM,0.026 nM,0.0365 nM
H[Aib]EGS[αMeF]TSDVSK([PEG2′-PEG2′-γGlu-Lauroyl])YLEGEAA[αMeK]K([PEG2′-PEG2′-γGlu-Lauroyl])FIAK([PEG2′-PEG2′-γGlu-Lauroyl])VVEGG-NH2 [SEQ ID NO: 462],47 pM,0.0376 nM,0.0564 nM

# Biological target: T2, glucose-dependent insulinotropic …
# Test: cell-based or functional assay
"cAMP Primary assay EC50, n1","cAMP Primary assay EC50, n2",Binder
20 nM,20 nM,H[Aib]EGS[αMeF]TSDV[αMeS]SK([PEG2′-PEG2′-γGlu-Lauroyl])LEGEAA[αMeK]K([PEG2′-PEG2′-γGlu-Lauroyl])FIAFK([PEG2′-PEG2′-γGlu-Lauroyl])VEGG-NH2 [SEQ ID NO: 482]
20 nM,20 nM,H[Aib]EGS[αMeF]TSDV[αMeS]SK([PEG2′-PEG2′-γGlu-Lauroyl])LEGK([PEG2′-PEG2′-γGlu-Lauroyl])AA[αMeK]EFIAFK([PEG2′-PEG2′-γGlu-Lauroyl])VEGG-NH2 [SEQ ID NO: 480]

# Continued, binder first:
Binder,"cAMP Primary assay EC50, n1","cAMP Primary assay EC50, n2"
H[Aib]EGS[αMeF]TSDK([PEG2′-PEG2′-γGlu-Lauroyl])SSYLEK([PEG2′-PEG2′-γGlu-Lauroyl])EAA[αMeK]EFIAK([PEG2′-PEG2′-γGlu-Lauroyl])VVEGG-NH2 [SEQ ID NO: 455],19.8 nM,19.8 nM
H[Aib]EGS[αMeF]TSDV[αMeS]SYK([PEG2′-PEG2′-γGlu-Lauroyl])EGEAA[αMeK]K([PEG2′-PEG2′-γGlu-Lauroyl])FIAK([PEG2′-PEG2′-γGlu-Lauroyl])VVEGG-NH2 [SEQ ID NO: 470],20 nM,20 nM
H[Aib]EGS[αMeF]TSDVSK([PEG2′-PEG2′-γGlu-Lauroyl])YLEGEAA[αMeK]K([PEG2′-PEG2′-γGlu-Lauroyl])FIAK([PEG2′-PEG2′-γGlu-Lauroyl])VVEGG-NH2 [SEQ ID NO: 462],20 nM,20 nM
